Measurements taken from PMC9201872.
Like-named read-outs stand apart in the source and are kept apart here. Each block holds one substance with its values, some of them ahead of it.

What was measured:
[1] = molecular target: TIM-SNAP-HA (Timeless, S-TIM) (Drosophila melanogaster); experiment: pull-down
[2] = molecular target: TIM-SNAP-HA (Timeless, S-TIM) (Drosophila melanogaster); experiment: pull-down; remark: listed apart in the source
[3] = molecular target: TIM-SNAP-HA (Timeless, S-TIM) (Drosophila melanogaster); experiment: pull-down; remark: listed apart in the source
[4] = molecular target: TIM-SNAP-HA (Timeless, S-TIM) (Drosophila melanogaster); experiment: native gel or EMSA

Chain of TIM-SNAP-HA (Timeless, S-TIM) (Drosophila melanogaster) (A4V040 whole entry): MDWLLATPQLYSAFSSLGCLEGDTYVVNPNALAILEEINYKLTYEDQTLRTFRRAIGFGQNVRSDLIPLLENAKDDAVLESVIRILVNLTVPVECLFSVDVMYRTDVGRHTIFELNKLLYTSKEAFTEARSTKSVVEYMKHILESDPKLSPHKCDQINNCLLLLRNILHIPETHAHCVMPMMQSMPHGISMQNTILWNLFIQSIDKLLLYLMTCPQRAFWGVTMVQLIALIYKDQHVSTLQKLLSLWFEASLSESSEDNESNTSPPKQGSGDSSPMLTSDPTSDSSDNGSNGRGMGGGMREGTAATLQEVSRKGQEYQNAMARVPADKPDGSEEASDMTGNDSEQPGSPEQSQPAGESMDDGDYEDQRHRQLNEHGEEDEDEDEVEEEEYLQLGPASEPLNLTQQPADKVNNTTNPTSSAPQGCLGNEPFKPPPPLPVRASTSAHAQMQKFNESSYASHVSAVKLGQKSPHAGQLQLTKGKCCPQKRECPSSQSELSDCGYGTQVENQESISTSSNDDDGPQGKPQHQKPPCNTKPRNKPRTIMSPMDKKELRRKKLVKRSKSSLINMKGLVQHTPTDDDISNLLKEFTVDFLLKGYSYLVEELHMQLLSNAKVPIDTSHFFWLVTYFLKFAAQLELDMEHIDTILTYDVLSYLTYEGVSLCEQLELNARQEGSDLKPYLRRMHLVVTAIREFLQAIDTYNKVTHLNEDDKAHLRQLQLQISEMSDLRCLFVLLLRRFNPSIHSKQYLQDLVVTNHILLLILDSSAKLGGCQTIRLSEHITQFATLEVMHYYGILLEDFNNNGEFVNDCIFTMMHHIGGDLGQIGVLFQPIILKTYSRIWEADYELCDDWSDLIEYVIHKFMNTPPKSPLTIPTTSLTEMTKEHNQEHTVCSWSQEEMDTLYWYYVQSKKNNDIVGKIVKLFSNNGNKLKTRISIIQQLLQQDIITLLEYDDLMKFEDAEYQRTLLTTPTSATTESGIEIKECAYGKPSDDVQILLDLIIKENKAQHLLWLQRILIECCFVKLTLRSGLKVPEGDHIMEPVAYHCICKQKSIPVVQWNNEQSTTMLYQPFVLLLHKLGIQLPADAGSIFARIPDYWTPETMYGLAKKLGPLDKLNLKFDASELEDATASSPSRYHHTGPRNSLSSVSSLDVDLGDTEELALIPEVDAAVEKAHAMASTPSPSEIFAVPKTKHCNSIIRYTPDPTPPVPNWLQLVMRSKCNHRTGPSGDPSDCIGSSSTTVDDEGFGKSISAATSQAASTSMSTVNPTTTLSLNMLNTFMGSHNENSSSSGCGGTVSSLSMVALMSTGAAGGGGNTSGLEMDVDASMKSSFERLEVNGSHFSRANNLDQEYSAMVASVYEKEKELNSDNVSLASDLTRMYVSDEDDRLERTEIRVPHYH

fold greater affinity than CRYΔ [1]: 10 fold
fold greater affinity than CRYΔ [2]: 10 fold
Substance: CLIP-CRY H377L (from UniProt O77059 1-539) (natural protein)

Kd [2]: 18100 nM
Substance: CLIP-CRY H377A (from UniProt O77059 1-539) (natural protein)

Kd [3]: 1500 nM
Kd [2]: 1700 nM
stoichiometry N [4]: 1.08
Substance: CLIP-CRYΔ (residue 1-520) (from UniProt O77059 1-520) (domain or fragment)

fold difference in KD against CRYΔ [2]: 35 fold
Substance: CLIP-CRY W394F (from UniProt O77059 1-539) (natural protein)
